Test results published in patent US20260139017A1, “COMPOSITIONS AND METHODS USING REELIN IN ALZHEIMER'S DISEASE” (The General Hospital Corporation, priority 2022, published 2026).
Entries after “also recorded” stand apart in the source; their conditions may differ.

Assays:
[1] = tested on: pDAB1 (Tyr232); assay: HRECs treated 5 minutes with recombinant mini-RELN, pDAB1 western blot; type: cell-based, human; conditions: for pDAB1 levels: 5 minutes, 4 ug/mL recombinant protein
Method: For in vitro screening of constructs using recombinant mini-RELN on HRECs, the cells were cultured in EBM-2 media enriched with EGM-2 Single Quots (Lonza) at 37° C. and 5% CO2 and experimentally tested at passage 7. 24 h prior experiment, cells were plated on a 6-well plate at 500,000 cells/mL. Two hours before the experiment, the cells were washed with PBS to remove residual growth media and then incubated with a starving media including EBM-2, 1% GlutaMax+0.2% Normicin. Treatments was conducted using recombinant mini RELN constructs obtained from Innovagen and Recombinant Mouse Reelin Protein from R&D systems (3820-MR-025/CF). Each treatment was incubated for 5 minutes at 4 ug/mL concentration and cells were subsequently harvested in lysis buffer was applied constituted of RIPA (Cell signaling), proteases inhibitors (cOmplete™, Mini, EDTA-free Protease Inhibitor Cocktail, Roche), phosphatases inhibitors (PhosSTOP, Roche), 1 μL of proteasome inhibitor MG-132 10 mM, 1% Triton X 100. The lysates were scraped and centrifugated at 15000 rpm for 10 minutes at 4° C. Total protein levels were quantified via BCA assay. For Western Blotting, 3.5 ug protein homogenates were prepared under reducing and denaturing conditions using Laemmli buffer enriched with 10 mM DTT and 5 min boiling. Samples were electrophoretically separated in a 4-20% Gel at 90V and protein transferred to a PVDF membrane using iBlot™ 2 Dry Blotting System. The membrane was blocked using Intercept® (TBS) Blocking Buffer for 2 hours. We detected pDAB1 (Tyr232; 1:1000, rabbit, #3325 Cell signaling), and total protein staining (Licor). Antibodies were diluted using Intercept® (TBS) Blocking Buffer and incubated overnight at 4C under gentle shaking. Prior secondary antibody incubation, membranes were washed 2 times using TBS-T for 10 minutes. As secondary antibodies we used IR Dye 800n CW Goat-anti-Rabbit (925-32211, Licor) diluted 1:10000 in blocking buffer for 1 h at room temperature under gentle shaking. Membranes were washed three times with TBST-T prior IR detection using Odyssey imager. To quantify the results, each band was quantified using ImageJ and data expressed as pDABL:total protein ratio normalized to the control.

[2] = tested on: total DAB1; assay: Overexpression of mini-RELN constructs in HRECs, total DAB1 western blot; type: cell-based, human; conditions: 24 h overexpression in HRECs
Method: For in vitro overexpression, the HRECs were cultured in EBM-2 media enriched with EGM-2 Single Quots (Lonza) at 37° C. and 5% CO2 and experimentally tested at passage 7. 24 h prior experiment, cells were plated on a 6-well plate at 500,000 cells/mL. The cell transfection of plasmids was done with Lipofectamine 2000 (5 μL, Life technologies) according to the manufacturer. In detail, one day prior to transfection, cells were seeded to be 70% confluent at moment of transfection. The day of transfection lipofectamine was diluted and incubated for 10 minutes at room temperature, to allow the formation of the lipophilic complex. Subsequently, each plasmid (1 μg, Invivogen) was added to the lipid complex of Lipofectamine and incubated for 10 minutes. We used OPTIMEM media (Gibco) to block the transfection after 5 hours, to allow cells to recover and facilitate replication. Prior 5 h and 24 h post-transfection, cells were imaged using 10× magnification light microscope (Olympus CKX53).
24 h post-transfection, cells were harvested for western blotting analysis. Total protein levels were quantified via BCA assay. […] We detected β-actin (1:5000, mouse, #66009-1-Ig, Proteintech), and total DAB1(1:100, SC-red tube; sc-271136 Dab1 (G-5), Santa Cruz). […] To quantify the results, each band was quantified using ImageJ and data expressed as DAB1:β-actin ratio normalized to the control. […]

[3] = tested on: pDAB1; assay: Trans-nasal (MIND) delivery of mini-RELN in mice, brain pDAB1 western blot; type: in vivo
From the text: (§1) We used a MIND procure (trans nasal delivery using Minimally Invasive Nasal Depot (MIND), Padmakumar et al., J Control Release. 2021 Mar. 10; 331: 176-186) or intraperitoneal injection to administer miniRELN constructs into mice. MIND leverages the olfactory nerve to bypass the blood brain barrier. […] Using the MIND methodology provides one method of reaching the entorhinal cortex with minimal systemic exposure. […] (Jackson Laboratory) were housed under regular light/night cycle. All procedures were conducted under approved IACUC animal protocols. Prior to incision, the nasal region was shaved and cleaned using betadine and 70% alcohol and mouse subcutaneously injected with buprenorphine HCl and meloxicam (5 mg/kg). The nasal cavity was then opened using a scalped and nasal mucosa exposed using a microdrill. Once the mucosa was exposed, gel dispersion of either PBS or mini-RELN constructs (Innovagen) in 20% Pluronic (Sigma Aldrich) was subcutaneously delivered in the surgically-generated pocket. Mice were injected with meloxicam for 3 days prior euthanasia at day 4 to collect the brain tissue used for post-mortem analysis.
Western blotting was performed as follows. 20 ug protein homogenates were prepared under reducing and denaturing conditions using Laemmli buffer enriched with 10 mM DTT and 5 min boiling. Samples were electrophoretically separated in a 4-20% Gel at 90V and protein transferred to a PVDF membrane using iBlot™ 2 Dry Blotting System. The membrane was blocked using Intercept® (TBS) Blocking Buffer for 2 hours. We detected pDAB1 (Tyr232; 1:1000, rabbit, #3325 Cell signaling), and Beta actin (1:5000, mouse, #66009-1-Ig, Proteintech). Antibodies were diluted using Intercept® (TBS) Blocking Buffer and incubated overnight at 4C under gentle shaking. Prior secondary antibody incubation, membranes were washes 2 times using TBS-T for 10 minutes. As secondary antibodies we used IR Dye 800n CW Goat-anti-Rabbit (925-32211, Licor) and IR Dye 680 CW Goat-anti-Mouse (925-68070, Licor) both diluted 1:10000 in blocking buffer for 1 h at room temperature under gentle shaking. Membranes were washed three times with TBS-T prior IR detection using Odyssey imager. To quantify the results, each band was quantified using ImageJ and data expressed as pDAB1:βActin ratio normalized to the control.

[4] = tested on: pDAB1; assay: Immunofluorescence of cleared brain sections (Fc tag, pDAB1) after MIND delivery; type: in vivo, mice
Method: 24 or 72 hours after Mini Reelin (225S) or vehicle administration, mice were intracardially perfused with 4% PFA in PBS and brains were harvested and incubated in 4% PFA at 4° C. for 24 hours. Sagittal sections were obtained at 1 mm thickness using a stainless-steel brain matrix. The entorhinal-hippocampal section of each brain was chosen for Clarity using Binaree® Tissue Clearing™ Kit (HRTC-012) following the kit guidelines. Sections were incubated with IgG-Fc tag and pDAB1 primary antibodies for 72 h followed by secondary antibody: Alexa 488 and Alexa 647, and DAPI for 1 h. Subsequently, sections were imaged using confocal SP8 microscope for quantification. […] This is proof of effective drug delivery, target engagement, and targeted RELN signaling activation, in the hippocampal formation.

[5] = Anti human IgG-Fc ELISA of hippocampus after trans-nasal mini-RELN; type: in vivo, mice; conditions: 72 h post injection, vs PBS vehicle
From the text: as §1

[6] = WT male mice, 72 h post-trans-nasal delivery

Molecule | efficacy at RELN signaling (pDAB1) relative to comparators ([1]; 5 minutes treatment) | pDAB1 levels [1] | total DAB1 levels normalized to β-actin and lipofectamine control [2] | pDAB1 levels in the hippocampus [3, 6] | pDAB1 levels in the midbrain [3, 6] | presence of peptide in the brain (Fc immunofluorescence) ([4]; entorhinal-hippocampal section, 24 or 72 hours after MIND) | RELN signaling measured via pDab1 (immunofluorescence) ([4]; wildtype animals, trans nasal, 24 hours, vs pluronic vehicle) | pDAB1 levels in the entorhinal cortex ([3]; Tau P301S mice, 72 h post-trans nasal delivery, vs PBS) | anti human IgG-Fc ELISA optical density in the hippocampus [5]
6xHISCR-50-R5-6-CtermH3447R (protein) MYRMQLLSCIALSLALVTNSGGHHHHHHGGEQCGAIMHGNAVTFCEPYGPRELITTGLNTTTASVLQFSIGSGSCRFSYSDPSIIVLYAKNNSADWIQLEKIRAPSNVSTIIHILYLPEDAKGENVQFQWKQENLRVGEVYEACWALGSRGGQTNATRFRLWQPYNNGKKEEIWIVDDFIIDGNNVNNPVMLLDTFDFGPREDNWFFYPGGNIGLYCPYSSKGAPEEDSAMVFVSNEVGEHSITTRDLNVNENTIIQFEINVGCSTDSSSADPVRLEFSRDFGATWHLLLPLCYHSSSHVSSLCSTEHHPSSTYYAGTMQGWRREVVHFGKLHLCGSVRFRWYQGFYPAGSQPVTWAIDNVYIGPQCEEMCNGQGSCINGTKCICDPGYSGPTCKISTKNPDFLKDDFEGQLESDRFLLMSGGKPSRKCGILSSGNNLFFNEDGLRMLMTRDLDLSHARFVQFFMRLGCGKGVPDPRSQPVLLQYSLNGGLSWSLLQEFLFSNSSNVGRYIALEIPLKARSGSTRLRWWQPSENGHFYSPWVIDQILIGGNISGNMVLEDDFTTLDSRKWLLHPGGTKMPVCGSTGDALVFIEKASTRYVVSTDVAVNEDSFLQIDFAVSCSVTDSCYAIELEYSVDLGLSWHPLVRDCLPTNVECSRYHLQRILVSDTFNKWTRITLPLPPYTRSQATRFRWHQPAPFDKQQTWAIDNVYIGDGCIDMCSGHGRCIQGNCVCDEQWGGLYCDDPETSLPTQLKDNFNRAPSSQNWLTVNGGKLSTVCGAVASGMALHFSGGCSRLLVTVDLNLTNAEFIQFYFMYGCLITPNNRNQGVLLEYSVNGGITWNLLMEIFYDQYSKPGFVNILLPPDAKEIATRFRWWQPRHDGLDQNDWAIDNVLISGSASTRKQNYMMNFSRQHGLRRFYNRRRRSLRRYP | more effective than commercially available positive control; also recorded: more effective at triggering signaling compared to full-length RELN WT and full-length RELN COLBOS | increased pDAB1 levels | the most active | increased | increased | – | – | – | –
FcIgG-RAP-CTRH3447R (protein) MYRMQLLSCIALSLALVTNSAPLERKSSVECPPCPAPPVAGPSVFLFPPKPKDTLMISRTPEVTCVVVDVSHEDPEVQFNWYVDGVEVHNAKTKPREEQFNSTFRVVSVLTVVHQDWLNGKEYKCKVSNKGLPAPIEKTISKTKGQPREPQVYTLPPSREEMTKNQVSLTCLVKGFYPSDIAVEWESNGQPENNYKTTPPMLDSDGSFFLYSKLTVDKSRWQQGNVFSCSVMHEALHNHYTQKSLSLSPGARTGGGGSGGGGSMAPRRVRSFLRGLPALLLLLLFLGPWPAASHGGKYSREKNQPKPSPKRESGEEFRMEKLNQLWEKAQRLHLPPVRLAELHADLKIQERDELAWKKLKLDGLDEDGEKEARLIRNLNVILAKYGLDGKKDARQVTSNSLSGTQEDGLDDPRLEKLWHKAKTSGKFSGEELDKLWREFLHHKEKVHEYNVLLETLSRTEEIHENVISPSDLSDIKGSVLHSRHTELKEKLRSINQGLDRLRRVSHQGYSTEAEFEEPRVIDLWDLAQSANLTDKELEAFREELKHFEAKIEKHNHYQKQLEIAHEKLRHAESVGDGERVSRSREKHALLEGRTKELGYTVKKHLQDLSGRISRARHNELTGGSGGSTRKQNYMMNFSRQHGLRRFYNRRRRSLRRYP | – | increased pDAB1 levels | – | – | – | presence of the miniRELN peptide in the brain | increased levels of RELN signaling | increased | trended to be increased
